The data set concerns the molecule itself. Put plainly: SEC. Background: Size exclusion chromatography separates by hydrodynamic size, large species first.

B1: recombinant A. fumigatus Hsp90 (rAfHsp90), full length, 6×His-tagged (natural protein)
chain: not shown
Take B1: the “stoichiometry N” value stood at 2.

One may read the stoichiometry N as the number of molecules, sites or subunits per partner or assembly.

The values are drawn from paper PMC7855945 (Cellular microbiology, 2020).
